In general, Ki refers to the dissociation constant of the complex between target and ligand, obtained from inhibition or displacement. Lower therefore signals higher affinity. One may read the IC50 as the point on the concentration scale where inhibition reaches its midpoint. Low values mean higher potency, high ones lower potency.

The target of test [1] is HLA-B0801 (human). The test can be described thus: competition vs labelled reference peptide. The note with it: remark: other sources report otherwise.
Test [2] deals with HLA-B*0702 (human). As to the kind of experiment: competition binding assay, purified HLA, labelled probe peptide.
Test [3] deals with HLA-B*3501 (human). The description is as above.

With IPLVGAPL (modifications not checked), in test [1], the inhibition constant (Ki) was found to be 20 nM. This molecule also yielded an IC50 in test [2] of 25 nM. Consider LPAILSPGAL (modifications not checked), for which the IC50 in test [3] turned out to be 550 nM.

Consider EARQAIRSL (modifications not checked), for which the inhibition constant (Ki) in test [1] was determined as 9 nM.

The values are drawn from patent EP1652858A1.
